Measured values from the nanobody polyreactivity screen of Harvey et al. (2022).

Experiment: yeast display, Sf9 membrane polyspecificity reagent, FACS + sequencing; frameworks hold sequencing errors
Summary of the method: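 Synthetic nanobody libraries on Saccharomyces cerevisiae BJ5465 were galactose-induced for 36–48 hours, stained 1 hour at 4 °C with 10% biotinylated, detergent-solubilized Sf9 membrane reagent and enriched on streptavidin microbeads. FACS then separated cells into low and high (top ~1%) gates by anti-HA (expression) and streptavidin (reagent binding) fluorescence. Genes were colony-PCR amplified, MiSeq 2 × 250 sequenced and CDR-length filtered. A clone's polyreactivity label is that of its gate of origin.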

Sequence	polyreactivity (PSR sort gate)
QVQLVESGGGLVQAGGSLRLSCAASGRIFSYYARGWYRQAPGKERELVATINSGGSTNYADSVKGRFTISRDNAKNTVYLLMNSLKPEDTAVYYCAASPVWWYDYWGQGTQVTVSS	low polyreactivity
QVQLVESGGGLVQAGGSLRLSCAASGRIFSYYTMGWYRQAPGKERELVAAITSGDSTNYADSVKGRFTISRDNAKNTVYLQMNSLKPEDNAVYYCNARYSWWRSRVGSSHRPDGYWGQGTQVTVSS	high polyreactivity
QVQLVESGGGLVQAGGSLRLSCAASGRIFTAYDMGWYRQAPGKERELVAAITRSSGSTYYADSVKGRFTISRDNAKNTVYLQMNSLKGEDTAVYYCATDGEFWGYDSWGQGTQVTVSS	low polyreactivity
QVQLVESGGGLVQAGGSLRLSCAASGRIFTAYYAMGWYRQAPGKERELVASISSSGTYTYADSVKGRFTISRDNAKNTVYLQMNSLKPEDTAVYYCATRKLRTRRYDYGYCGQGTQVTVSS	low polyreactivity
QVQLVESGGGLVQAGGSLRLSCAASGRIFTDNAMGWYRQAPGKERELVAAISWDGSSTSYADSVKGRFTISRDNAKNTVYLQMNSLKPEDTAVYDCAAVLYSGLYWYRLDYWGQGTRVTVSS	low polyreactivity
QVQLVESGGGLVQAGGSLRLSCAASGRIFTFYAMGWYRQAPGKERELVAVITTGTSTTYADSVKGRVTISRDNAKNTVYLQMNSLKPEDTAVYYCAVESWSRVQGWLAHNYDYWGQGTQVTVSS	low polyreactivity
QVQLVESGGGLVQAGGSLRLSCAASGRIFTGNAMGWNRQAPGKERELVAAISASGSSTYYADSVKGRFTISRDNAKNTVYLQMNRLKPDDTAVYYCAADGWYGYYYWGQGTQVTVSS	high polyreactivity
QVQLVESGGGLVQAGGSLRLSCAASGRIFTGNAMGWSRQAPGKERELVAAISASGSSSYYADSVKGRFTISRDNAKNTVYLQMNSLNPEDTAVYYCAAEGWYCYYYWGQGTQVTVSS	high polyreactivity
QVQLVESGGGLVQAGGSLRLSCAASGRIFTGNAMGWYRQAPGKERELVAAITGRGGNTYYADSVKGRFTISRDNAKNTVYLQMNSLKPEDTAVYYCAKVFFHTPIVPEFEYWGQGTQVTVSS	low polyreactivity
QVQLVESGGGLVQAGGSLRLSCAASGRIFTGNAMGWYRQAPGKERELVASITYNGGRTYYADSVKGRFTISRDKAKNTVYLPMNRLKPEDTAVYYCNAGDYGFGYEYWGQGTQVTVSS	low polyreactivity
QVQLVESGGGLVQAGGSLRLSCAASGRIFTGYAMGWYRQAPGKEREFVAAITGRGGSTYYADSVKGRFTISRDNAKNTVYLLMNSLKPEDTAVYYCNALPRSPWYYRGDYWGQGTQVTVSS	high polyreactivity
QVQLVESGGGLVQAGGSLRLSCAASGRIFTHNAMGWYIQAPGKERELVAAITSGGRTTYADSVKGRFTISRENAKNTVYLQMISLKPVDTAVYYCAADDLLDYDYWGQGTQVTVSS	low polyreactivity
QVQLVESGGGLVQAGGSLRLSCAASGRIFTIYAMGWSRQAPGKERELVATISRRGGSTYYADSVKGRFTISRDNAKNTVYLKMNSLKPEDSAVYYFAADSVITWWAYYYWGQGTQVTVSS	high polyreactivity
QVQLVESGGGLVQAGGSLRLSCAASGRIFTIYAMGWYRQAPGKERELVARITRGTSTYADSVKGRFTISRDNAKNTVYLQMNSLKPEDTAVYYCAADPTDTSLGDYWGQGTQVTVSS	high polyreactivity
QVQLVESGGGLVQAGGSLRLSCAASGRIFTLYAMGWYRQAPGKERELVAAISYGGGGTYYADSVKGRFTISRDNAKNTVYLQMNRLKPEDSAVYFCATDDPLSQINEQGMDYWGQGTQVTVSS	low polyreactivity
QVQLVESGGGLVQAGGSLRLSCAASGRIFTNNAMGWYRQAPGKERELVAAITRGGTTNYADSVKGRFTISRDNAKNTVYLHMNSLKPEDTAVYFCARAGAHPWWSRSTMYYWGQGTQVTVSS	low polyreactivity
QVQLVESGGGLVQAGGSLRLSCAASGRIFTNYAMGWYREAPGKERELVAAINYSGGNTYYADSVKGRFTISRDNAKNTVYLQMNSLIPEDTAVYYCNAPILPRYRRYDYWGQGTQVTVSS	low polyreactivity
